B1: Pleckstrin homology domain-containing family S member 1 (Homo sapiens), Q5SXH7-1 (parent)
chain: MAGGKQFTFSYENEVCKQDYFIKSPPSQLFSSVTSWKKRFFILSKAGEKSFSLSYYKDHHHRGSIEIDQNSSVEVGISSQEKMQSVQKMFKCHPDEVMSIRTTNREYFLIGHDREKIKDWVSFMSSFRQDIKATQQNTEEELSLGNKRTLFYSSPLLGPSSTSEAVGSSSPRNGLQDKHLMEQSSPGFRQTHLQDLSEATQDVKEENHYLTPRSVLLELDNIIASSDSGESIETDGPDQVSGRIECHYEPMESYFFKETSHESVDSSKEEPQTLPETQDGDLHLQEQGSGIDWCLSPADVEAQTTNDQKGSASLTVVQLSILINNIPDESQVEKLNVFLSPPDVINYLALTEATGRICVSQWEGPPRLGCIFCHGDHLLAVNDLKPQSLEEVSLFLTRSIQKEKLKLTIGRIPNSETFHAASCMCPSKCQSAAPSQLDKPRLNRAPKRSPAIKKSQQKGARE
B2: Tetraspanin-2 (Homo sapiens), O60636 (parent)
chain: MGRFRGGLRCIKYLLLGFNLLFWLAGSAVIAFGLWFRFGGAIKELSSEDKSPEYFYVGLYVLVGAGALMMAVGFFGCCGAMRESQCVLGSFFTCLLVIFAAEVTTGVFAFIGKGVAIRHVQTMYEEAYNDYLKDRGKGNGTLITFHSTFQCCGKESSEQVQPTCPKELLGHKNCIDEIETIISVKLQLIGIVGIGIAGLTIFGMIFSMVLCCAIRNSRDVI

Variants of: B1
Details: with p55g_human PIK3R3, Q92569

Which “effect of a mutation on the interaction” value does the source give for D68F here?
The value was “disrupting interaction”.

Variants of: B2
Details: with grb2_human GRB2, P62993
Sequence of grb2_human GRB2, P62993 (P62993 whole entry, looked up): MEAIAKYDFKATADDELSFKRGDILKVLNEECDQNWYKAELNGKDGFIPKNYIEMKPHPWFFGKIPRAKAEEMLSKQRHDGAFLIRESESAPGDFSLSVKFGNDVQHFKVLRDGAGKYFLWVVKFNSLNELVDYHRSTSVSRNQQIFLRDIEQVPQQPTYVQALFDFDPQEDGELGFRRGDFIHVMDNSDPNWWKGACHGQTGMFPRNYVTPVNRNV

Y124F was tested. Which “effect of a mutation on the interaction” value did it give?
Its value is “disrupting interaction”.

Variants of: B2
Details: with p55g_human PIK3R3, Q92569

Which “effect of a mutation on the interaction” value does the source give for Y124F here?
Its value is “disrupting interaction”.

Reference: IntAct's records for PubMed 25814554
